Results as given in publication PMC10746158 (mBio, 2023).

Target: the molecule itself
Assay: SEC; HiLoad 16/60 Superdex 200 pg; 150 mM NaCl, 50 mM Tris, 10 mM MgCl2, pH 8.0; monodisperse peak at ~60 kDa against 30.5 kDa for the monomer

B1: Sulfolobus acidocaldarius GPN-loop GTPase SaGPN (Saci_1281) (enzyme)
chain: YFIFVLGTAGSGKTTLVKALQDYLLNNELDTAIINLDPAVEVLPYKPDIDAREYVDVYDVMNKYELGPNSSLVISVDLLLTKAKELKEDLNQLQANYVLVDTPGQIELFAYRDTGKILSSFISEGSKSVSVFLFDSYLSKDPKSFLSLFLLSSSIKFRIDMPQISVLSKVDLLSSSELERMRSWIEDGSIIDELGSIDEYSFELVKTIVENLESFPIPVSSTNFSGLDQLYAEVQKVLAGGEDFETEEPNPRL
notes: SaGPN (Saci_1281), the solitary GPN-loop GTPase of Sulfolobus acidocaldarius, Uniprot Q4J9A7; residues Y2-A240 were built in both structures, 14 amino acids at the C-terminus are disordered; printed mass 30.5 kDa; Crystallised with GppNHp or GDP and Mg2+; source: E. coli BL21(DE3) Rosetta, purified (heat treatment, Ni-NTA, SEC); not shown: His10, N-terminal, kept
stoichiometry N: 2
